# Laboratory results: patent US20140363377A1 (UNIVERSITY OF BRITISH COLUMBIA, published 2014)
# T1: DR4, endogenous, in human cancer cell lysates (human, UniProt O00220 24-468)
# T1 construct: also called TRAIL receptor DR4
# T1 sequence (looked up): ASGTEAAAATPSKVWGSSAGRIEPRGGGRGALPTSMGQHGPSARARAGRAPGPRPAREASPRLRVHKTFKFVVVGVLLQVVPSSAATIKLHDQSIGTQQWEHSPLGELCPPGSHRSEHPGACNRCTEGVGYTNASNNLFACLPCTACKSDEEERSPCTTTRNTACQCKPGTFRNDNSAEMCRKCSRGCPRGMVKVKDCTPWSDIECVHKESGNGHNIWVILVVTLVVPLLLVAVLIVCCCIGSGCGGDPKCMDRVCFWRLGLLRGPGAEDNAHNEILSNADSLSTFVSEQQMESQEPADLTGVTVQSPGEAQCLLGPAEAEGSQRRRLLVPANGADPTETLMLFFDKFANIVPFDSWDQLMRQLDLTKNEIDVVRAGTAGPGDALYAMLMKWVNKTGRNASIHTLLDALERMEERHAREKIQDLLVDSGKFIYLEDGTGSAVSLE
# B1: SPARC (Secreted Protein, Acidic, Rich in Cysteines), His-tagged, stably expressed in MIP101 cells (MIP/SP) (other, human, UniProt P09486 18-303, looked up)
# chain: APQQEALPDETEVVEETVAEVTEVSVGANPVQVEVGEFDDGAEETEEEVVAENPCQNHHCKHGKVCELDENNTPMCVCQDPTSCPAPIGEFEKVCSNDNKTFDSSCHFFATKCTLEGTKKGHKLHLDYIGPCKYIPPCLDSELTEFPLRMRDWLKNVLVTLYERDEDNNLLTEKQKLRVKKIHENEKRLEAGDHPVELLARDFEKNYNMYIFPVHWQFGQLDQHPIDGYLSHTELAPLRAPLIPMEHCTTRFFETCDLDNDKYIALDEWAGCFGIKQKDIDKDLVI
# notes: Present in membrane fractions of MIP/SP cell lysates used for co-immunoprecipitation; also called osteonectin; His-tagged SPARC protein; not shown: His tag
# How the values were obtained:
# [1] = biological target: B1; assay: co-immunoprecipitation from subcellular fractions
# Method: (§1) Cells were separated into nuclear, cytosolic, and membrane fractions using ProteoExtract Subcellular Proteome Extraction Kit (EMD Biosciences Inc.). […] Protein:Antibody mixture was then incubated with 30 μL of Protein A: Protein G (Sigma) (1:1) beads for 4 hours (4° C.).
# [2] = biological target: T1, DR4, endogenous, in human cancer cell …; assay: co-immunoprecipitation from subcellular fractions
# Method: as §1
Binder,binding result [1],binding result [2]
"FADD, endogenous, in human cancer cell lysates (other, UniProt Q13158 1-208, looked up, also called Fas-associated death domain; p-FADD) MDPFLVLLHSVSSSLSSSELTELKFLCLGRVGKRKLERVQSGLDLFSMLLEQNDLEPGHTELLRELLASLRRHDLLRRVDDFEAGAAAGAAPGEEDLCAAFNVICDNVGKDWRRLARQLKVSDTKIDSIEDRYPRNLTERVRESLRIWKNTEKENATVAHLVGALRSCQMNLVADLVQEVQQARDLQNRSGAMSPMSWNSDASTSEAS",no binding,–
B1,–,no binding
